Substrate in series [1]: C[N+](C)(C)[C@@H](Cc1cnc(SC[C@H](N)C(=O)O)[nH]1)C(=O)[O-]
Description: purified protein. The series is classed as biochemical, Mycolicibacterium smegmatis. The conditions noted are these: 50 mM KPi pH 8.0, 1.0 mM DTT, 10 nM EgtE, 0.13 mM NADH, LDH.

Substrate in series [2]: C[N+](C)(C)[C@@H](Cc1cnc([S+]([O-])C[C@H](N)C(=O)O)[nH]1)C(=O)[O-]
The experiment in a line: purified protein. The series is classed as biochemical, Mycolicibacterium smegmatis. The note with it: 50 mM KPi pH 8.0, 1.0 mM DTT, 10 nM EgtE, 0.13 mM NADH, LDH.

This note sets out measurements from PMC4493562, “Mechanistic studies of a novel C-S lyase in ergothioneine biosynthesis: the involvement of a sulfenic acid intermediate” (Scientific Reports, 2015).

As usually defined, the Km is the concentration of substrate that gives half-maximal velocity. One may read the kcat as the maximal rate divided by the concentration of active sites.

B1: EgtE (Mycolicibacterium smegmatis MC2 155) (protein)
chain: MMLAQQWRDARPKVAGLHLDSGACSRQSFAVIDATTAHARHEAEVGGYVAAEAATPALDAGRAAVASLIGFAASDVVYTSGSNHAIDLLLSSWPGKRTLACLPGEYGPNLSAMAANGFQVRALPVDDDGRVLVDEASHELSAHPVALVHLTALASHRGIAQPAAELVEACHNAGIPVVIDAAQALGHLDCNVGADAVYSSSRKWLAGPRGVGVLAVRPELAERLQPRIPPSDWPIPMSVLEKLELGEHNAAARVGFSVAVGEHLAAGPTAVRERLAEVGRLSRQVLAEVDGWRVVEPVDQPTAITTLESTDGADPASVRSWLIAERGIVTTACELARAPFEMRTPVLRISPHVDVTVDELEQFAAALREAP
notes: cloning details in supplement
B1: in “purified protein [1]”, the Km is 1960 ± 250 µM and the kcat turned out to be 7.93 ± 0.05 s⁻¹. Besides, in “purified protein [2]”, the Km amounted to 121.2 ± 6.6 µM and the kcat came to 25.27 ± 0.45 s⁻¹.
